Three substances from patent publication US20220009959A1 can be followed below.

For assay [1], the target named is CHO-K1 host cell proteins of mAb production clarified cell culture harvest (Chinese hamster (CHO-K1)). Nature of the assay: static binding pH 6, 150 mM NaCl.
For assay [2], the target named is monoclonal antibody product of the CHO-K1 production harvest. Briefly: static binding pH 6, 150 mM NaCl.
Assay [3] deals with CHO-K1 host cell proteins of mAb production clarified cell culture harvest (Chinese hamster (CHO-K1)). Briefly: static binding pH 7, 20 mM NaCl; HCP ELISA over Easy-Titer (reference: mAb m53). (In an ELISA, binding on a coated surface is turned into a signal by an enzyme label.)
The target of assay [4] is high molecular weight HCPs (MW>150 kDa) of CHO-K1 IgG1 harvest (Chinese hamster (CHO-K1)). Nature of the assay: flow-through, SEC; 1 min RT, 60 CV cut-off load.
The target of assay [5] is low molecular weight HCPs (10 kDa<MW<150 kDa) of CHO-K1 IgG1 harvest (Chinese hamster (CHO-K1)). Nature of the assay: flow-through, SEC; 1 min RT, 60 CV cut-off load.
Assay [6] addresses high molecular weight HCPs (MW>150 kDa) of CHO-K1 IgG1 harvest (Chinese hamster (CHO-K1)). Nature of the assay: flow-through, SEC; 10-30 CV load.

Consider 4MP-Toyopearl resin, for which the Kp (partition coefficient) was 7.3 in assay [1] and 0.75 in assay [2]. In assay [3], the HCP targeted binding ratio (TBR; % HCP removed / % mAb removed) was determined as 4.87.
On to 6HP-Toyopearl resin, for which the Kp (partition coefficient) turned out to be 6.1 in assay [1] and 0.96 in assay [2].
6HP/4MP-Toyopearl resin came in with a percent reduction in HMW % in assay [4] of 50%. The substance also returned a percent reduction in LMW % in assay [5] of 36%. The fold reduction in HMW species in assay [6] was in the range of 2 to 4 fold.
